US20180355060A1 (published 2018)

How the values were obtained:
[1] = molecular target: T1, human transglutaminase type 2 (TG2) (human, UniProt P21980 1-687); test: SPR (Biacore T200), antibody captured on anti-human IgG1 Fc chip, human TG2 injected; +Ca2+
T1 construct: Recombinant human TG2 bought from Zedira (cat. T002) in ELISA, SPR and enzyme assays; also called hTG2; rhTG2
T1 sequence: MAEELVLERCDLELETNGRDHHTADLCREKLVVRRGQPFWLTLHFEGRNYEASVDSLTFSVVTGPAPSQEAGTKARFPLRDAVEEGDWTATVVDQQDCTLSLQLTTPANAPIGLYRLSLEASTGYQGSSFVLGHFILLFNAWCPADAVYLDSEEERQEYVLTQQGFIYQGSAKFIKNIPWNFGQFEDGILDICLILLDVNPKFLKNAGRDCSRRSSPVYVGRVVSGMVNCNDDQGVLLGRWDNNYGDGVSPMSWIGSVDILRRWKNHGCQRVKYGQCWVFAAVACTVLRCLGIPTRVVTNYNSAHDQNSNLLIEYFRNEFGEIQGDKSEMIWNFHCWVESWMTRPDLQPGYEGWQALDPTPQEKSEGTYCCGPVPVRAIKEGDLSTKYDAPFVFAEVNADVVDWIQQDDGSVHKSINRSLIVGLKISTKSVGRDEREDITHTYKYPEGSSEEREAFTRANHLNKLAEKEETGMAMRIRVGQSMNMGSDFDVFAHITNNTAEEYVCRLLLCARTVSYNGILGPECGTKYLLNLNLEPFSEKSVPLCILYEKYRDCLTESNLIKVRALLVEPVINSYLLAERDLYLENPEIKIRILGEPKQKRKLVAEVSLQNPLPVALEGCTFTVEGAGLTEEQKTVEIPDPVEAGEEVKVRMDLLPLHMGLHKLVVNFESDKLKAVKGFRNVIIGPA
Method: (§1) FIG. 45: Human TG2 binding to cAB003 immobilised antibody by Biacore. The association phases of human TG2 injections over the cAB003-coated biosensor at 25, 50, 100 and 200 nM, including in duplicate at 50 nM, are shown on the left. From the same experiment, two long dissociation phases were collected, as shown on the right.
(§2) The method employed to determine the affinity of the anti-TG2 antibodies involved the capture of the chimeric or humanised antibodies on a MAH coated CM5 chip, followed by the injection of a series of TG2 samples in running buffer. The running buffer was 1× HBS-P+ containing 1 mM CaCl₂, or 1×HBS-EP+ for calcium-free experiments. Antibody capture was carried out for a contact time of 120 seconds at a flow rate of 10 μl/min resulting in the capture of approximately 40-80 RU. TG2 was injected over the immobilised antibody at concentrations ranging from 25 nM to 400 nM with a contact time up to 600 seconds at a flow rate of 30 μl/min. Dissociation of TG2 was typically measured for up to 5400 seconds (1.5 hours). Regeneration of the chip was then performed using 3 M MgCl₂, for a contact time of 60 seconds at a flow rate of […], followed by a 300s stabilisation period before the next sample. […]
(§3) Kinetic data were exported from the Biacore T200 Evaluation Software and analysed using GraphPad Prism, where the association phases and dissociation phases were analysed separately using a one phase association model and one-phase exponential decay model respectively. Association rates (kₒₙ) were calculated for each curve individually, and dissociation rates (koff) values from the long dissociation phase data collected. Where koff values were calculated to be <1×10⁻⁵ s⁻¹, values were set at 1×10⁻⁵ for analysis, as rates slower than this could not be estimated accurately. Values for kₒₙ and koff are presented in the tables below as the mean of the individual calculated values for each antibody for each TG2 species from multiple concentrations +/−1 standard deviation. KD values are calculated as mean koff/mean kₒₙ.

[2] = molecular target: T1, human transglutaminase type 2 (TG2); test: SPR (Biacore T200), antibody captured on anti-human IgG1 Fc chip, human TG2 injected; -Ca2+
Method: as §1, §2, §3

[3] = molecular target: T2, cynomolgus monkey TG2 (cynomolgus monkey, UniProt A0A2K5VXI8 2-687); test: SPR (Biacore T200), antibody captured on anti-human IgG1 Fc chip, cynomolgus TG2 injected; +Ca2+
T2 construct: Recombinant, from Trenzyme; also called cynomogulus monkey TG2; cyano TG2
T2 sequence: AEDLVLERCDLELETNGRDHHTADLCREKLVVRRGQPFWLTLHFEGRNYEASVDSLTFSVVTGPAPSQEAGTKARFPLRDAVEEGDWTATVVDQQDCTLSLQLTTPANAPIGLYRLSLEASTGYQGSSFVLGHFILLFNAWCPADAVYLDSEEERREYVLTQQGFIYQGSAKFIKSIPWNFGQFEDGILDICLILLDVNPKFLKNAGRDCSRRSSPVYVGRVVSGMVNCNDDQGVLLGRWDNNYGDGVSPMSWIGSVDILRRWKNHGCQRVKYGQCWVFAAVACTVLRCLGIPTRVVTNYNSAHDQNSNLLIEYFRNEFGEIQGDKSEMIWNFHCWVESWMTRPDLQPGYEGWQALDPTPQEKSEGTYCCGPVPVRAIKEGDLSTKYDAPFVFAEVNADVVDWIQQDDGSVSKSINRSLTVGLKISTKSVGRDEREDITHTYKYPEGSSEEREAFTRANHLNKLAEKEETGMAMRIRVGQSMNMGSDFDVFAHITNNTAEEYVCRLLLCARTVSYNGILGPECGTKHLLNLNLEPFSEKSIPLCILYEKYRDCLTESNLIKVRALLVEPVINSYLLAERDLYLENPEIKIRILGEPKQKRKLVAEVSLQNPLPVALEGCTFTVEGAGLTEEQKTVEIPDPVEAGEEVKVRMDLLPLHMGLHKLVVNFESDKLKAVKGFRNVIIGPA
Method: (§4) The method employed to determine the affinity of the anti-TG2 antibodies involved the capture of the chimeric or humanised antibodies on a MAH coated CM5 chip, followed by the injection of a series of TG2 samples in running buffer. The running buffer was 1× HBS-P+ containing 1 mM CaCl₂, or 1×HBS-EP+ for calcium-free experiments. Antibody capture was carried out for a contact time of 120 seconds at a flow rate of 10 μl/min resulting in the capture of approximately 40-80 RU. TG2 was injected over the immobilised antibody at concentrations ranging from 25 nM to 400 nM with a contact time up to 600 seconds at a flow rate of 30 μl/min. Dissociation of TG2 was typically measured for up to 5400 seconds (1.5 hours). Regeneration of the chip was then performed using 3 M MgCl₂, for a contact time of 60 seconds at a flow rate of […], followed by a 300s stabilisation period before the next sample. For each of human and cynomolgus monkey TG2, at least 5 injections at a variety of concentrations were performed in at least two separate experiments.
as §3

[4] = molecular target: T2, cynomolgus monkey TG2; test: SPR (Biacore T200), antibody captured on anti-human IgG1 Fc chip, cynomolgus TG2 injected; -Ca2+
Method: as §4, §3

[5] = molecular target: T3, rat TG2 (rat, UniProt Q9WVJ6 1-686); test: western blot and ELISA
T3 sequence: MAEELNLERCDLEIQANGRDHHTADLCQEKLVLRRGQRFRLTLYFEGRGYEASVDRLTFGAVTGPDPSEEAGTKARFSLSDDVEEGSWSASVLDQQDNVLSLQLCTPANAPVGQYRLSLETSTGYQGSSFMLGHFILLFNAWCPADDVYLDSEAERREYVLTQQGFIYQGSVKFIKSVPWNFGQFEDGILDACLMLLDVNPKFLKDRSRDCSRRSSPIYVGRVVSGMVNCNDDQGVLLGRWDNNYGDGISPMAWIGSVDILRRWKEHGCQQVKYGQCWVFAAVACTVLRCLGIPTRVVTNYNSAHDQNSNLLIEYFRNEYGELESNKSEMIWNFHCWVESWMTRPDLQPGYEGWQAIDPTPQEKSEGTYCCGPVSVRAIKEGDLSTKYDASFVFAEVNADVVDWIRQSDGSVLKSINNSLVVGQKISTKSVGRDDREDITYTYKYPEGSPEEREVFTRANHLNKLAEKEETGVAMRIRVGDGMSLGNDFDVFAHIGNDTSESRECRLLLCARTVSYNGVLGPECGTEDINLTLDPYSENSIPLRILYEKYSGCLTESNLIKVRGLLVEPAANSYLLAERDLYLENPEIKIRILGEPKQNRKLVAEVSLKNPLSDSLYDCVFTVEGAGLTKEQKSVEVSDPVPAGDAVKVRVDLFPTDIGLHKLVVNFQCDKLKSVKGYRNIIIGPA

[6] = molecular target: T3, rat TG2; test: cell-based or functional assay
[7] = molecular target: T1, human transglutaminase type 2 (TG2); test: cell-based or functional assay
[8] = molecular target: T1, human transglutaminase type 2 (TG2); test: SPR (Biacore T200), antibody captured on anti-human IgG1 Fc chip, human TG2 injected; Ca2+ condition not marked in this row
Method: as §4, §3

[9] = molecular target: T2, cynomolgus monkey TG2; test: SPR (Biacore T200), antibody captured on anti-human IgG1 Fc chip, cynomolgus TG2 injected; Ca2+ condition not marked in this row
Method: as §4, §3

B1: cAB003 chimeric anti-TG2 antibody (murine AB1 variable regions, human IgG1 and human kappa) (antibody, V domains shown)
VH: EVQLVESGGGLVKPGGSLKLSCAASGFTLSSSAMSWVRQTPDRRLEWVATISVGGGKTYYPDSVKGRFTISRDNAKNTLYLQMNSLRSEDTAMYYCAKLISLYWGQGTTLTVSS
VL: DIKMTQSPSSMYASLGERVTITCKASQDINSYLTWFQQKPGKSPKTLIYRTNRLFDGVPSRFSGSGSGQDFFLTISSLEYEDMGIYYCLQYDDFPYTFGGGTKLEIK
notes: The versions differ only in the first 7 residues; also called chimeric AB1
Kd [1]: < 60 pM | koff [1]: < 1e-05 s⁻¹ | kon [1]: 170000 M⁻¹ s⁻¹ | Kd [2]: < 100 pM | koff [2]: < 1e-05 s⁻¹ | kon [2]: 86000 M⁻¹ s⁻¹ | Kd [3]: 50 pM | koff [3]: 1.2e-05 s⁻¹ | kon [3]: 240000 M⁻¹ s⁻¹ | Kd [4]: 93 pM | koff [4]: 1.3e-05 s⁻¹ | kon [4]: 140000 M⁻¹ s⁻¹

B2: BB7 murine monoclonal anti-TG2 antibody (antibody, V domains shown)
VH: AVQLVESGGGLVKPGGSLKLSCAASGIIFSSSAMSWVRQTPEKRLEWVATISSGGRSTYYPDSVKGRFTVSRDSAKNTLYLQMDSLRSEDTAIYYCAKLISPYWGQGTTLTVSS
VL: AIKMTQSPSSMYASLGERVIITCKASQDINSYLTWFQQKPGKSPKTLIYLTNRLMDGVPSRFSGSGSGQEFLLTISGLEHEDMGIYYCLQYVDFPYTFGGGTKLEIK
notes: Mouse IgG from hybridoma (gamma-1 primer MHCG1, kappa); also called mBB001
binding result [5]: binds

B3: DH2 murine monoclonal anti-TG2 antibody (antibody, V domains shown)
VH: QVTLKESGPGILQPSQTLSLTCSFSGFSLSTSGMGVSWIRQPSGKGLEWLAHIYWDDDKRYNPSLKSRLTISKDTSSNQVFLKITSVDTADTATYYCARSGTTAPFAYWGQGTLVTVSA
VL: QIVLTQSPAIMSASPGEKVTMTCSASSSVSYMYWYQQKPGSSPRLLIYDTSNLASGVPVRFSGSGSGTSYSLTISRMEAEDAATFYCQQWSSSPLTFGAGTKLELK
IC50, 3H-putrescine incorporation TG activity assay [6]: 0.000223 mg/ml of IgG (amount required to inhibit 1 ng of TG2)

B4: DD9 murine monoclonal anti-TG2 antibody (antibody, V domains shown)
VH: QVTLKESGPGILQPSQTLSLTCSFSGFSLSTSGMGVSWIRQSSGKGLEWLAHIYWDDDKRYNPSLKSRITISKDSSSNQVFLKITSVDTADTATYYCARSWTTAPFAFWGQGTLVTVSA
VL: QIVLTQSPAIMSASPGEKVTMTCSASSSVDYMYWYQQKPGSSPRLLIYDTSNLASGVPVRFSGSGSGTSYSLTISRMGAEDAATYYCQQWNSSPLTFGAGTKLELK
notes: Mouse IgG from hybridoma (gamma-2a primer MHCG2A, kappa); also called mDD9001
binding result [5]: binds

B5: hBB001AA humanised BB7 antibody (BB7 RHA with BB7 RKA) (antibody, V domains shown)
VH: EVQLLESGGGLVQPGGSLRLSCAASGIIFSSSAMSWVRQAPGKGLEWVATISSGGRSTYYPDSVKGRFTVSRDSSKNTLYLQMNSLRAEDTAVYYCAKLISPYWGQGTLVTVSS
VL: DIKMTQSPSSLSASVGDRVTITCKASQDINSYLTWFQQKPGKAPKTLIYLTNRLMDGVPSRFSGSGSGQEFLLTISSLQPEDFATYYCLQYVDFPYTFGQGTKVEIK
notes: The name AA is read as heavy version RHA + kappa version RKA; also called hBB01AA
IC50, inhibition of extracellular TG2 activity of HK2 cells (biotin cadaverine incorporation into fibronectin) [7]: 19800 pM | kon [8]: 270000 M⁻¹ s⁻¹ | Kd [9]: < 30 pM | koff [9]: < 1e-05 s⁻¹ | kon [9]: 300000 M⁻¹ s⁻¹

B6: hAB004 (hAB001AE) humanised AB1 antibody, heavy chain version RHA with light chain version RKE (antibody, V domains shown)
VH: EVQLLESGGGLVQPGGSLRLSCAASGFTFSSSAMSWVRQAPGKGLEWVSTISVGGGKTYYPDSVKGRFTISRDNSKNTLYLQMNSLRAEDTAVYYCAKLISLYWGQGTLVTVSS
VL: EIVLTQSPSSLSASVGDRVTITCKASQDINSYLTWYQQKPGKAPKLLIYRTNRLFDGVPSRFSGSGSGTDFFFTISSLQPEDFGTYYCLQYDDFPYTFGGGTKLEIK
notes: Captured by anti-human IgG1 Fc in SPR
Kd [9]: 11 pM

B7: hBB001BB humanised BB7 antibody (BB7 RHB with BB7 RKB) (antibody, V domains shown)
VH: EVQLLESGGGLVQPGGSLRLSCAASGFTFSSSAMSWVRQAPGKGLEWVSTISSGGRSTYYPDSVKGRFTISRDNSKNTLYLQMNSLRAEDTAVYYCAKLISPYWGQGTLVTVSS
VL: DIQMTQSPSSLSASVGDRVTITCKASQDINSYLTWFQQKPGKAPKSLIYLTNRLMDGVPSRFSGSGSGTDFFLTISSLQPEDFATYYCLQYVDFPYTFGQGTKVEIK
notes: The name BB is read as heavy version RHB + kappa version RKB
IC50, inhibition of extracellular TG2 activity of HK2 cells (biotin cadaverine incorporation into fibronectin) [7]: 4900 pM | Kd [8]: < 40 pM | koff [8]: < 1e-05 s⁻¹ | kon [8]: 240000 M⁻¹ s⁻¹ | Kd [9]: 140 pM | koff [9]: 3.7e-05 s⁻¹ | kon [9]: 270000 M⁻¹ s⁻¹
